Measured values from patent US7118889 (US Dept. of Health and Human Services, dated 2006).

Legend:
[1] = biological target: T1, p85 subunit of PI3K, endogenous, Jurkat T cells (human, UniProt P27986 2-724); test: anti-myc immunoprecipitation from C305-stimulated stable Jurkat transfectants, immunoblot
T1 construct: mature; also called p85 subunit of PI-3 kinase
Procedure: (§1) Exogenous LAT was immunoprecipitated with anti-myc antibody from cells either left unstimulated or stimulated with C305 (1:50). Samples were analyzed on SDS-PAGE and blotted with 4G10. The same membrane was also blotted with anti-PLC-γ1, anti-p85, anti-Grb2, anti-SOS, and anti-LAT after stripping.
(§2) Myc-tagged LAT was immunoprecipitated with anti-myc antibody from unstimulated or C305 stimulated transfectants. […] The myc-tagged LAT appears as a doublet as does endogenous LAT. […] In addition, mutations at Y171 and Y191 prevented the association of SLP-76, Vav and Cbl, but the 70 kDa tyrosine-phosphorylated protein remained associated with LAT. […] The association with SOS was also disrupted by the double Y to F mutations.

[2] = biological target: T2, Cbl, endogenous, Jurkat T cells (human, UniProt P22681 1-906, tyrosine phosphorylated in stimulated cells); test: as above
T2 construct: also called Cbl (120 kD); c-cbl
Procedure: as §1, §2

[3] = biological target: T3, Vav, endogenous, Jurkat T cells (human, UniProt P15498 1-845, tyrosine phosphorylated in stimulated cells); test: as above
T3 construct: also called Vav (100 kD)
T3 sequence (looked up): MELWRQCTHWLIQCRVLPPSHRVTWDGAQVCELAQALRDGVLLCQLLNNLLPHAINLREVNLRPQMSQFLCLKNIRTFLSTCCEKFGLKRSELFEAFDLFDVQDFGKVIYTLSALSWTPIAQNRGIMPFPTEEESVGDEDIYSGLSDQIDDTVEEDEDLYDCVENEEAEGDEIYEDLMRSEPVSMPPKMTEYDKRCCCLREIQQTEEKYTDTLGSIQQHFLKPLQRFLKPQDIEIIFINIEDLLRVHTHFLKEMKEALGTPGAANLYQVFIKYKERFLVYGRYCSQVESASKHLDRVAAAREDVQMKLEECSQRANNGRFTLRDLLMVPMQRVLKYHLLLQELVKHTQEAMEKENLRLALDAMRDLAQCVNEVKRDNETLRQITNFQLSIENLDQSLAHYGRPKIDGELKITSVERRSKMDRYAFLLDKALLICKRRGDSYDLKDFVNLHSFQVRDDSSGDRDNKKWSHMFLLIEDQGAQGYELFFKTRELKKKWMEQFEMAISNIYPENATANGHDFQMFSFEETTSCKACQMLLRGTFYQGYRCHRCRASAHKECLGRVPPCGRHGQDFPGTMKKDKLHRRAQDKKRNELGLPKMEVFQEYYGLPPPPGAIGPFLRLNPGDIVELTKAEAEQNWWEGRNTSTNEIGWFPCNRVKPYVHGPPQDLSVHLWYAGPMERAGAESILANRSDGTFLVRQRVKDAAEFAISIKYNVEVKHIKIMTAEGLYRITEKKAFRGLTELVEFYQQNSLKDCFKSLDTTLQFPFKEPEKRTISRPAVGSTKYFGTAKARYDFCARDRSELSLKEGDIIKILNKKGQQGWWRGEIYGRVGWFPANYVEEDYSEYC
Procedure: as §1, §2

[4] = biological target: T4, SLP-76, endogenous, Jurkat T cells (human, UniProt Q13094 1-533, tyrosine phosphorylated in stimulated cells); test: as above
T4 construct: mature; also called 76 kD protein; SH2-domain Leukocyte Protein
T4 sequence (looked up): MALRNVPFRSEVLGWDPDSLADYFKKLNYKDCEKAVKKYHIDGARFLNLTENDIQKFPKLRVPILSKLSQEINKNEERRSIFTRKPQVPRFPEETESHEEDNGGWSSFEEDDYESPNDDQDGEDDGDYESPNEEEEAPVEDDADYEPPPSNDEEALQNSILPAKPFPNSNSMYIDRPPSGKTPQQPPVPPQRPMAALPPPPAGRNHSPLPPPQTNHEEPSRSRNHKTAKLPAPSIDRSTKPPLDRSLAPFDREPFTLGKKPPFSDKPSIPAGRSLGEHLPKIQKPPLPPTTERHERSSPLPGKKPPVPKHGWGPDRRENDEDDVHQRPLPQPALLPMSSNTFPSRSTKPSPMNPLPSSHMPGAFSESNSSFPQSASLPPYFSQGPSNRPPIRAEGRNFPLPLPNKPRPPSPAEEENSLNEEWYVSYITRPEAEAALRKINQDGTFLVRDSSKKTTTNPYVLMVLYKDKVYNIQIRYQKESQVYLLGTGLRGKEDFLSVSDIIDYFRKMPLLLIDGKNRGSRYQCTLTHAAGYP
Procedure: as §1, §2

[5] = biological target: T5, Grb2, endogenous (293T cells and Jurkat T cells) (human, UniProt P62993 1-217); test: as above
T5 construct: Endogenous protein of human cell lines; also called endogenous Grb2; Grb2 linker protein
Procedure: as §1, §2

[6] = biological target: Lck protein tyrosine kinase (transfected in 293T cells) (UniProt P06239 2-509, limits assumed); test: co-immunoprecipitation from transfected 293T cells
Procedure: Figure 4B: FIG. 4(B) is a representative immunoblot, showing association of LAT with signaling molecules in 293T cells. FLAG-tagged LAT was cotransfected with pCEFL/HA-Grb2, pSRα/Grap-myc, pcDNA3/HA-p85 and pcDNA3/PLC-γ1 in the absence or presence of ZAP-70 and Lck PTKs. Brij lysates of transfected 293T cells were immunoprecipitated with anti-FLAG, and association of LAT with tested proteins was determined by blotting with specific antibodies.
In this example, association of LAT with Grb2, Grap, PI3K and PLC-γ1 is shown in 293T cells. To investigate the association of LAT with critical signaling molecules, FLAG-tagged LAT in the pcDNA3 vector was cotransfected in 293T cells with plasmids expressing HA-tagged Grb2, Myc-tagged Grap, HA-tagged p85 subunit of PI3K or PLC-γ1, in the presence or absence of both ZAP-70 and Lck. LAT was immunoprecipitated with anti-FLAG antibody, and associated proteins were detected by blotting with specific antibodies. […] When LAT and the two PTKs were coexpressed with HA-tagged Grb2, both endogenous Grb2 and HA-Grb2 bound to phosphorylated LAT (HA-Grb2 migrates more slowly than endogenous Grb2 on SDS-PAGE). Myc-tagged Grap, the Grb2-like protein, when coexpressed with LAT in the presence of the two PTKs, also associated with phosphorylated LAT. […] HA-tagged p85 or PLC-γ1 also associated with phosphorylated LAT. […]

Measured: binding result

T1 sequence (P27986 2-724): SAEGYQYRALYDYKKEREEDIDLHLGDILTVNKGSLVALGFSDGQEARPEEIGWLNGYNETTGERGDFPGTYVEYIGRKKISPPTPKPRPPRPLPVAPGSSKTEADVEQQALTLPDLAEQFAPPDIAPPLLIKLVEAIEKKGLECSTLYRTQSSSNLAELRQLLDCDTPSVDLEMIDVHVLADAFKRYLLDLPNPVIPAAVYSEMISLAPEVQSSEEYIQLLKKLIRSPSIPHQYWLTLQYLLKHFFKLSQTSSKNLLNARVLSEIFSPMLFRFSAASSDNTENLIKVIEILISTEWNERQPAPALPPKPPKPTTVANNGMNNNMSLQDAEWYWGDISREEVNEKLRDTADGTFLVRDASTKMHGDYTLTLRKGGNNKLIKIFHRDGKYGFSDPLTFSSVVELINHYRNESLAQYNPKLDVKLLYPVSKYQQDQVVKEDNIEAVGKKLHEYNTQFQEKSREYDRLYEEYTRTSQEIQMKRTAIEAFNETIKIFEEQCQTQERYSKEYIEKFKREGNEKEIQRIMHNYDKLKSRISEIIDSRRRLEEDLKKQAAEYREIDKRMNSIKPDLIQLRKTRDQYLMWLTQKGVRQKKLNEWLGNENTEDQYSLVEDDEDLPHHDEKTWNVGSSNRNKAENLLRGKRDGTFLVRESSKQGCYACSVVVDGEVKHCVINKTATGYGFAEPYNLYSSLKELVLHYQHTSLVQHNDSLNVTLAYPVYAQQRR
Sequence of Lck protein tyrosine kinase (transfected in 293T cells) (P06239 2-509 limits assumed): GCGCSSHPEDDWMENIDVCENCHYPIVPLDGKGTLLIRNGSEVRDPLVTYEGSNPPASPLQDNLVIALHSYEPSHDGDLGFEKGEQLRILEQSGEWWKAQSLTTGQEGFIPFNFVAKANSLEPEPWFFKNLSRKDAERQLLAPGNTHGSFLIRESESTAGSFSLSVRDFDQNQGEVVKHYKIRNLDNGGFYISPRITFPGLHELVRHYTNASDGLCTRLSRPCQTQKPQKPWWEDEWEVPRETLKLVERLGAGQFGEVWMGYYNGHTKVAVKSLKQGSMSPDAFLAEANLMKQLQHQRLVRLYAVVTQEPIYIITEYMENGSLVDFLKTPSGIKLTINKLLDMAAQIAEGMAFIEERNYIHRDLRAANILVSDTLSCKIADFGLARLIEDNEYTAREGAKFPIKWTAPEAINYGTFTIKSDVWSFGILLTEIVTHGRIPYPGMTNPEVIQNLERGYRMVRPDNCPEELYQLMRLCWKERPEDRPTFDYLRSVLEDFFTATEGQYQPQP
T5 sequence (P62993 whole entry): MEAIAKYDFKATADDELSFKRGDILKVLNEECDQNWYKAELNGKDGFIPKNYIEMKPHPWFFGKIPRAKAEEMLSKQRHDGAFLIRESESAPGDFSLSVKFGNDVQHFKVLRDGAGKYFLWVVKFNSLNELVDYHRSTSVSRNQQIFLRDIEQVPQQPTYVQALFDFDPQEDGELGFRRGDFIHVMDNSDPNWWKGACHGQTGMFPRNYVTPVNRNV

B1: myc-tagged mutant LAT (Y171/191F), stably expressed in Jurkat cells, C305 stimulated (other)
chain: MEEAILVPCVLGLLLLPILAMLMALCVHCHRLPGSYDSTSSDSLYPRGIQFKRPHTVAPWPPAYPPVTSYPPLSQPDLLPIPRSPQPLGGSHRTPSSRRDSDGANSVASYENEEPACEDADEDEDDYHNPGYLVVLPDSTPATSTAAPSAPALSTPGIRDSAFSMESIDDFVNVPESGESAEASLDGSREFVNVSQELHPGAAKTEPAALSSQEAEEVEEEGAPDYENLQELNSMEQKLISEEDLN
modifications: tyrosine phosphorylated upon stimulation at residues other than Y171 and Y191, less than WT
notes: also called mLAT
no binding: [1] | [2] | [3] | [4] | [5]

B2: FLAG-tagged LAT, tyrosine phosphorylated (co-expressed in 293T cells with Syk, or with ZAP-70 and Lck or Fyn) (other)
chain: MEEAILVPCVLGLLLLPILAMLMALCVHCHRLPGSYDSTSSDSLYPRGIQFKRPHTVAPWPPAYPPVTSYPPLSQPDLLPIPRSPQPLGGSHRTPSSRRDSDGANSVASYENEEPACEDADEDEDDYHNPGYLVVLPDSTPATSTAAPSAPALSTPGIRDSAFSMESIDDYVNVPESGESAEASLDGSREYVNVSQELHPGAAKTEPAALSSQEAEEVEEEGAPDYENLQELNDYKDDDDK
modifications: tyrosine phosphorylated by co-expressed PTKs; sites not mapped
notes: Made by replacing the Pst I/Cla I fragment of LAT with an oligonucleotide encoding FLAG; also called phosphorylated LAT
no binding: [6]
